# Paper PMC4359947 (The international journal of biochemistry & cell biology, 2015)
# Ends that are not written are not given here.
# B1: CAR (CAR^Ex7) C-terminus, Cy5-labelled, tag-free (peptide)
# peptide: GAIPVMIPAQSKDGSIV
# modifications: also: Cy5 label (approximately 1 dye/peptide), site not given here
# Target: MAGI-1 PDZ1 domain, Cy3-labelled, tag-free (Cy3 label (approximately 1 dye/peptide))
# Assay: FRET or BRET
binder,measurement,value
B1,Kd,> 0.5 µM
